# Laboratory results: the supplement of paper PMC9112550, “Optimization of the antimicrobial peptide Bac7 by deep mutational scanning” (BMC Biology, 2022)
# Test system: Escherichia coli TOP10
# Experiment: shrunken log2 fold change of peptide-encoding DNA abundance (4.5 h post-induction vs induction); higher = less antimicrobial activity (less host growth inhibition)
# Details: time post-induction: 4.5 h; library: site-saturation at positions 5, 18, 19, 20
# 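Note: peptides expressed intracellularly from a pBAD plasmid library in pooled LB shake-flask culture, induced with 0.3% L-arabinose, DNA abundance read by NGS, three biological replicates, DESeq2 with apeglm shrinkage.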
row,Sequence,shrunken log2 fold change
1,RRIRSRPPRLPRPRPRPYVWPRP,-0.332
2,RRIRPRPPRLPRPRPRPNDCPRP,0.0214
3,RRIRMRPPRLPRPRPRPYWTPRP,-0.354
4,RRIRFRPPRLPRPRPRPSSAPRP,-0.0032
5,RRIRNRPPRLPRPRPRPFRPPRP,-0.215
6,RRIRSRPPRLPRPRPRPGWYPRP,-0.118
7,RRIRLRPPRLPRPRPRPGYRPRP,-0.16
8,RRIRSRPPRLPRPRPRPHPWPRP,-0.0172
9,RRIRHRPPRLPRPRPRPICNPRP,-0.422
10,RRIRRRPPRLPRPRPRPWGTPRP,-0.0589
11,RRIRSRPPRLPRPRPRPDMIPRP,-0.00286
12,RRIRFRPPRLPRPRPRPFQNPRP,-0.041
13,RRIRPRPPRLPRPRPRPGCCPRP,0.343
14,RRIRMRPPRLPRPRPRPTLQPRP,0.13
15,RRIRNRPPRLPRPRPRPELVPRP,0.391
16,RRIRYRPPRLPRPRPRPRYKPRP,-0.451
17,RRIRLRPPRLPRPRPRPTCVPRP,0.0314
18,RRIRIRPPRLPRPRPRPTNPPRP,-0.454
19,RRIRVRPPRLPRPRPRPRIHPRP,-0.219
20,RRIRLRPPRLPRPRPRPAEPPRP,0.188
21,RRIRPRPPRLPRPRPRPAQPPRP,0.732
22,RRIRRRPPRLPRPRPRPQTDPRP,0.13
23,RRIRKRPPRLPRPRPRPEYWPRP,-0.0125
24,RRIRARPPRLPRPRPRPRTQPRP,0.634
25,RRIRCRPPRLPRPRPRPCAYPRP,-0.153

row,Sequence,shrunken log2 fold change
1,RRIRQRPPRLPRPRPRPLRIPRP,0.116
2,RRIRTRPPRLPRPRPRPQLTPRP,-0.0274
3,RRIRLRPPRLPRPRPRPGTCPRP,0.0703
4,RRIRMRPPRLPRPRPRPDMIPRP,-0.00213
5,RRIRCRPPRLPRPRPRPFGLPRP,-0.0423
6,RRIRNRPPRLPRPRPRPVQSPRP,0.00489
7,RRIRARPPRLPRPRPRPDNAPRP,0.311
8,RRIRLRPPRLPRPRPRPVWLPRP,0.242
9,RRIRERPPRLPRPRPRPSWWPRP,2.26
10,RRIRYRPPRLPRPRPRPTEDPRP,-0.166
11,RRIRARPPRLPRPRPRPEPWPRP,0.742
12,RRIRLRPPRLPRPRPRPCAIPRP,-0.218
13,RRIRSRPPRLPRPRPRPDVGPRP,0.102
14,RRIRKRPPRLPRPRPRPAILPRP,0.0725
15,RRIRWRPPRLPRPRPRPHEDPRP,0.185
16,RRIRYRPPRLPRPRPRPRCTPRP,-0.407
17,RRIRCRPPRLPRPRPRPYANPRP,-0.0471
18,RRIRCRPPRLPRPRPRPFLRPRP,-0.0477
19,RRIRVRPPRLPRPRPRPQYKPRP,-0.527
20,RRIRGRPPRLPRPRPRPKRGPRP,0.919
21,RRIRKRPPRLPRPRPRPDEDPRP,-0.00112
22,RRIRKRPPRLPRPRPRPPKRPRP,1.15
23,RRIRFRPPRLPRPRPRPQIYPRP,-1.01
24,RRIRFRPPRLPRPRPRPEIEPRP,0.0594
25,RRIRIRPPRLPRPRPRPHIFPRP,-0.311

row,Sequence,shrunken log2 fold change
1,RRIRPRPPRLPRPRPRPFFEPRP,0.229
2,RRIRKRPPRLPRPRPRPPNSPRP,0.156
3,RRIRERPPRLPRPRPRPPNHPRP,-0.288
4,RRIRDRPPRLPRPRPRPWRQPRP,-0.114
5,RRIRKRPPRLPRPRPRPVCNPRP,-0.148
6,RRIRCRPPRLPRPRPRPRQAPRP,0.00566
7,RRIRERPPRLPRPRPRPGKRPRP,0.093
8,RRIRPRPPRLPRPRPRPQYYPRP,-0.422
9,RRIRCRPPRLPRPRPRPPMKPRP,0.242
10,RRIRRRPPRLPRPRPRPSASPRP,0.101
11,RRIRHRPPRLPRPRPRPRNWPRP,0.0465
12,RRIRTRPPRLPRPRPRPVFMPRP,-0.25
13,RRIRARPPRLPRPRPRPGNHPRP,-0.0331
14,RRIRCRPPRLPRPRPRPNPAPRP,0.101
15,RRIRMRPPRLPRPRPRPRNLPRP,0.0196
16,RRIRNRPPRLPRPRPRPETLPRP,0.373
17,RRIRGRPPRLPRPRPRPSGGPRP,0.391
18,RRIRFRPPRLPRPRPRPIALPRP,-0.222
19,RRIRSRPPRLPRPRPRPLQQPRP,0.553
20,RRIRFRPPRLPRPRPRPPINPRP,-0.406
21,RRIRVRPPRLPRPRPRPSMCPRP,-0.528
22,RRIRMRPPRLPRPRPRPDHAPRP,0.0825
23,RRIRHRPPRLPRPRPRPCQKPRP,-0.0102
24,RRIRGRPPRLPRPRPRPSKPPRP,0.218
25,RRIRWRPPRLPRPRPRPMEKPRP,0.0685
